Experimental data: patent publication US6869925 (Amgen, dated 2005)

Key:
[1] = target: SLPI binding sites on HuT78 cells (human T cell line) (human); test: competition with 125I-SLPI, intact HuT78 cells, competitor at 0.80 nM
[2] = target: SLPI binding sites on HuT78 cells (human T cell line) (human); test: competition with 125I-SLPI, intact HuT78 cells, competitor at 2.6 nM
[3] = target: SLPI binding sites on U937 cells (human monocyte cell line; intact cells, PMA-induced cells or plasma membranes) (human); test: competition with 125I-SLPI, intact U937 cells, cold SLPI at 0.80 nM
[4] = target: SLPI binding sites on U937 cells (human monocyte cell line; intact cells, PMA-induced cells or plasma membranes) (human); test: 125I-SLPI saturation binding, U937 cells minus PMA, *SLPI at 640 pM
[5] = target: SLPI binding sites on U937 cells (human monocyte cell line; intact cells, PMA-induced cells or plasma membranes) (human); test: 125I-SLPI saturation binding, U937 cells plus PMA, *SLPI at 20,480 pM
[6] = target: SLPI binding sites on HuT78 cells (human T cell line) (human); test: competition with 125I-SLPI, intact HuT78 cells, competitor at 2750 nM
[7] = target: SLPI binding sites on HuT78 cells (human T cell line) (human); test: competition with 125I-SLPI, intact HuT78 cells, cold SLPI at 2.6 nM
[8] = target: SLPI binding sites on U937 cells (human monocyte cell line; intact cells, PMA-induced cells or plasma membranes) (human); test: 125I-SLPI saturation binding, U937 cells minus PMA, *SLPI at 1280 pM
[9] = target: SLPI binding sites on elutriated human peripheral blood monocytes (human); test: 125I-SLPI binding to intact monocytes
[10] = target: SLPI binding sites on U937 cells (human monocyte cell line; intact cells, PMA-induced cells or plasma membranes) (human); test: competition with 125I-SLPI, intact U937 cells, competitor at 0.024 nM
[11] = target: SLPI binding sites on HuT78 cells (human T cell line) (human); test: 125I-SLPI saturation binding, intact HuT78 cells, *SLPI at 5120 pM
[12] = target: SLPI binding sites on U937 cells (human monocyte cell line; intact cells, PMA-induced cells or plasma membranes) (human); test: competition with 125I-SLPI, intact U937 cells, cold SLPI at 0.024 nM
[13] = target: SLPI binding sites on U937 cells (human monocyte cell line; intact cells, PMA-induced cells or plasma membranes) (human); test: 125I-SLPI saturation binding, U937 cells plus PMA, *SLPI at 10,240 pM
[14] = target: SLPI binding sites on U937 cells (human monocyte cell line; intact cells, PMA-induced cells or plasma membranes) (human); test: 125I-SLPI saturation binding, U937 cells plus PMA, *SLPI at 320 pM
[15] = target: SLPI binding sites on HuT78 cells (human T cell line) (human); test: 125I-SLPI saturation binding, intact HuT78 cells, *SLPI at 80 pM
[16] = target: SLPI binding sites on U937 cells (human monocyte cell line; intact cells, PMA-induced cells or plasma membranes) (human); test: competition with 125I-SLPI, intact U937 cells, cold SLPI at 2750 nM
[17] = target: SLPI binding sites on U937 cells (human monocyte cell line; intact cells, PMA-induced cells or plasma membranes) (human); test: competition with 125I-SLPI, intact U937 cells, competitor at 860 nM
[18] = target: SLPI binding sites on HuT78 cells (human T cell line) (human); test: competition with 125I-SLPI, intact HuT78 cells, competitor at 84 nM
[19] = target: SLPI binding sites on U937 cells (human monocyte cell line; intact cells, PMA-induced cells or plasma membranes) (human); test: competition with 125I-SLPI, U937 plasma membranes, competitor at 0.800 nM
[20] = target: SLPI binding sites on U937 cells (human monocyte cell line; intact cells, PMA-induced cells or plasma membranes) (human); test: 125I-SLPI saturation binding, intact U937 cells, *SLPI at 10,240 pM
[21] = target: SLPI binding sites on U937 cells (human monocyte cell line; intact cells, PMA-induced cells or plasma membranes) (human); test: 125I-SLPI saturation binding, intact U937 cells, *SLPI at 5120 pM
[22] = target: SLPI binding sites on U937 cells (human monocyte cell line; intact cells, PMA-induced cells or plasma membranes) (human); test: Scatchard plot of 125I-SLPI saturation binding, non-induced U937 cells
[23] = target: SLPI binding sites on U937 cells (human monocyte cell line; intact cells, PMA-induced cells or plasma membranes) (human); test: 125I-SLPI saturation binding, U937 cells minus PMA, *SLPI at 20,480 pM
[24] = target: SLPI binding sites on U937 cells (human monocyte cell line; intact cells, PMA-induced cells or plasma membranes) (human); test: competition with 125I-SLPI, intact U937 cells, competitor at 0.078 nM
[25] = target: SLPI binding sites on U937 cells (human monocyte cell line; intact cells, PMA-induced cells or plasma membranes) (human); test: competition with 125I-SLPI, intact U937 cells, cold SLPI at 2.6 nM

serine leukocyte protease inhibitor (SLPI), sequence (P03973 26-132): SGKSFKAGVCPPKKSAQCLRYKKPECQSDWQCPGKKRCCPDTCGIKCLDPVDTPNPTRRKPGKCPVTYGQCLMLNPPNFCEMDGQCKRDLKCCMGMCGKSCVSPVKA

Substance: serine leukocyte protease inhibitor (SLPI) (from UniProt P03973 26-132)
- % *SLPI BOUND [1]: 79%
- % *SLPI BOUND [2]: 76%
- % *SLPI BOUND [3]: 77%
- bound *SLPI (pM) [4]: 207 pM
- bound per free [4]: 0.478
- sites bound per cell (sites per cell) [4]: 12500
- specific cpm [4]: 2210 cpm
- bound pM [5]: 255 pM
- bound per free [5]: 0.0126
- sites bound per cell (sites per cell) [5]: 15400
- specific cpm [5]: 2720 cpm
- % *SLPI BOUND [6]: 0%
- % *SLPI BOUND [7]: 56%
- bound *SLPI (pM) [8]: 396 pM
- bound per free [8]: 0.448
- sites bound per cell (sites per cell) [8]: 23900
- specific cpm [8]: 4230 cpm
- *SLPI concentration at saturation (micrograms/ml) [9]: 0.5
- *SLPI concentration required for half-maximal binding [9]: 10 nM
- % *SLPI BOUND [10]: 111%
- bound pM [11]: 13.5 pM
- bound per free [11]: 0.0026
- sites bound per cell (sites per cell) [11]: 813
- specific cpm [11]: 538 cpm
- % *SLPI BOUND [12]: 100%
- bound pM [13]: 274 pM
- bound per free [13]: 0.028
- sites bound per cell (sites per cell) [13]: 16500
- specific cpm [13]: 2930 cpm
- bound pM [14]: 65 pM
- bound per free [14]: 0.255
- sites bound per cell (sites per cell) [14]: 3920
- specific cpm [14]: 698 cpm
- bound pM [15]: 0.75 pM
- bound per free [15]: 0.0095
- sites bound per cell (sites per cell) [15]: 45
- specific cpm [15]: 30 cpm
- % *SLPI BOUND [16]: 0.5%
- % *SLPI BOUND [17]: 4%
- % *SLPI BOUND [18]: 27%
- CPM *SLPI BOUND [19]: 14800 cpm
- bound *SLPI (pM) [20]: 463 pM
- bound per free [20]: 0.047
- sites bound per cell (sites per cell) [20]: 27900
- specific cpm [20]: 18500 cpm
- bound *SLPI (pM) [21]: 379 pM
- bound per free [21]: 0.08
- sites bound per cell (sites per cell) [21]: 22800
- specific cpm [21]: 15100 cpm
- Kd [22]: 1.1 nM
- bound *SLPI (pM) [23]: 915 pM
- bound per free [23]: 0.047
- sites bound per cell (sites per cell) [23]: 55100
- specific cpm [23]: 9780 cpm
- % *SLPI BOUND [24]: 111%
- % *SLPI BOUND [25]: 55%
